Test results: patent US20120077210A1 (COMMONWEALTH SCIENTIFIC AND INDUSTRIAL RESEARCH ORGANISATION, published 2012)

Target: T1, Odr10 labelled with GFP2 at the C-terminus (C. elegans)
T1 construct: Fusion protein expressed in S. cerevisiae Invsc1; Assayed in living yeast cells (BRET2) and as digitonin-solubilised crude membrane (co-immunoprecipitation); also called odr-10-GFP2; Odr10-GFP2
Assay: co-immunoprecipitation with anti-GFP antibody from a mixture of solubilised membranes that expressed each fusion separately (control)
Method: Membrane protein solubilisation and immunoprecipitation procedures were modified according to the method described by Ayoub et al. (2002). Crude membrane was solubilised with 0.5% digitonin (Sigma) and this mixture was stirred for 3 h at 4° C. Non-solubilised membrane proteins were removed by centrifugation at 18,000×g for 30 mins at 4° C. The digitonin concentration was adjusted to 0.2% using cold Buffer B and the polyclonal anti-GFP antibodies (Sapphire Bioscience, Cat No 120-29000) were added to a final dilution of 1:1000. Immune complex formation was allowed to proceed for 12 h at 4° C. with gentle agitation and Protein A-agarose suspension (Sigma) was added to a final volume of 1:10 (agarose suspension:sample) for incubation for another 6 h with gentle agitation at 4° C. After centrifugation for 1 min at 5000×g, supernatant was decanted and the agarose beads washed five times with 0.5 ml of cold Buffer C (Buffer B+0.2% digitonin). Precipitates were analysed by assessing luciferase activity in a luminometer (BMGLabtech) using coelenterazine as substrate (Biosynth AG, Switzerland).
Oligomerisation of Odr-10 in the living yeast cells was confirmed by the pairwise expression of receptor-Rluc and -GFP² fusion, followed by precipitation using anti-green fluorescence protein antibodies and measuring co-immunoprecipitated luciferase activity. […]

luciferase activity recovered relative to co-expressed odr-10-GFP^2 and odr-10-Rluc: < 20%
B1: Odr10 labelled with Rluc at the C-terminus (receptor)
chain: MSGELWITLVDTADIVGVTLTFCVNIVLLGLLKTRGKNLGTYKYLMAFFSVFSIFYAIIEFILRPIMHIENTTFFLISRKRFNYSTKLGKINSAFYCACFATSFVVSGVHFVYRYFATCKPNLLRLFNLPTLLLWPLGCSVPVTMWASVSYFLYPDTEYTEAAVTNVLNNHYNWIKKENVSYIAYVYYQYENGVRHIYLKNLLGCFVHYFVMSMTFVVMFYCGYATWKTMNEHKDVSDRTRALQKQLFKALVLQTLIPTIFMYAPTGVMFIAPFFDVNLNANANFIVFCSFLYPGLDPLILILIIRDFRRTIFNFLCGKKNSVDESRSTTRANLSQVPTMTSKVYDPEQRKRMITGPQWWARCKQMNVLDSFINYYDSEKHAENAVIFLHGNAASSYLWRHVVPHIEPVARCIIPDLIGMGKSGKSGNGSYRLLDHYKYLTAWFELLNLPKKIIFVGHDWGACLAFHYSYEHQDKIKAIVHAESVVDVIESWDEWPDIEEDIALIKSEEGEKMVLENNFFVETMLPSKIMRKLEPEEFAAYLEPFKEKGEVRRPTLSWPREIPLVKGGKPDVVQIVRNYNAYLRASDDLPKMFIESDPGFFSNAIVEGAKKFPNTEFVKVKGLHFSQEDAPDEMGKYIKSFVERVLKNEQ
notes: Fusion protein expressed in S. cerevisiae Invsc1; Assayed in living yeast cells (BRET2) and as digitonin-solubilised crude membrane (co-immunoprecipitation); also called odr-10-Rluc; Odr10-Rluc
